The target in experiment [1] is T1, human CLDN18.2 (human).
T1 construct: also called hCLDN18.2; Claudin-18 splice variant 2
As to the kind of experiment: flow cytometry on HEK293-CLDN18.2 cells; unit taken from the concentration axis.
Description: (§1) Log-phase HEK293-CLDN18.2 and NUGC4 cells were re-suspended in PBS. After 3× cell wash by using FACS washing buffer (PBS+2% FBS), 100 μl/well diluted hybridoma Abs with a range from 400 nM to 0.002 nM were added into each well for incubation at 4° C. for 30 min. Again, cells were washed 3 times by using FACS washing buffer and then incubated with 100 μl/well goat anti-mIgG-FITC (1:400 dilution) at 4° C. for another 30 min. After a final 3× wash using FACS washing buffer, cells were analyzed by flow Cytometry.

Experiment [2] deals with T1, human CLDN18.2. Description: FACS, NUGC4 cells.
Experiment [3] addresses T2, human CLDN18.1 (human, UniProt P56856 1-261).
T2 construct: on HEK293-CLDN18.1 cells; also called Claudin-18 splice variant 1; NP_057453.1
Description: FACS, HEK293-CLDN18.1 cells.

The target in experiment [4] is T1, human CLDN18.2. Description: FACS, HEK293-CLDN18.2 cells.
Experiment [5] has as its target T3, human CLDN18.2-mRFP1, wild-type (human).
T3 construct: human CLDN18.2 (amino acid 1-261) fused to mRFP1 (amino acid 1-225), transiently expressed in HEK293 cells; also called wild-type human CLDN18.2-mRFP
As to the kind of experiment: FACS, transfected HEK293, 10 µg/ml antibody.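 Note: antibody binding read by flow cytometry with a FITC-labelled anti-human IgG secondary, gated on RFP-positive cells, each mutant signal expressed against wild-type CLDN18.2.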
Description: (§2) The transfected HEK293-CLDN18.2 or HEK293-CLDN18.1 cell were resuspended in PBS with 2% BSA at density of 10\hat{ }5/well, 100 μl/well. […] Next, cells were washed 3 times by FACS washing buffer and incubated with 100 μl/well goat anti-hIgG (H+L)-FITC (1:200 dilution) at 4° C. for another 30 min. Finally, cells were washed 3 times by FACS washing buffer and analyzed by Flow Cytometry. To analyze binding to CLDN18.2 transfected cells, the RFP positive cells were used for control gating.

Experiment [6] deals with human CLDN18.2-mRFP Q29M (human). Description: FACS, transfected HEK293, 10 µg/ml antibody.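 Note: antibody binding read by flow cytometry with a FITC-labelled anti-human IgG secondary, gated on RFP-positive cells, each mutant signal expressed against wild-type CLDN18.2.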
Description: as §2
For experiment [7], the target named is human CLDN18.2-mRFP N37D (human). Description: FACS, transfected HEK293, 10 µg/ml antibody.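 Note: antibody binding read by flow cytometry with a FITC-labelled anti-human IgG secondary, gated on RFP-positive cells, each mutant signal expressed against wild-type CLDN18.2.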
Description: as §2
Experiment [8] deals with human CLDN18.2-mRFP A42S (human). Description: FACS, transfected HEK293, 10 µg/ml antibody.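 Note: antibody binding read by flow cytometry with a FITC-labelled anti-human IgG secondary, gated on RFP-positive cells, each mutant signal expressed against wild-type CLDN18.2.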
Description: as §2
The target of experiment [9] is human CLDN18.2-mRFP N45Q (human). Description: FACS, transfected HEK293, 10 µg/ml antibody.
Description: as §2
The target of experiment [10] is human CLDN18.2-mRFP Q47E (human). Description: FACS, transfected HEK293, 10 µg/ml antibody.
Description: as §2
Experiment [11] deals with human CLDN18.2-mRFP E56Q (human). Description: FACS, transfected HEK293, 10 µg/ml antibody.
Description: as §2
Experiment [12] deals with human CLDN18.2-mRFP G65P (human). Description: FACS, transfected HEK293, 10 µg/ml antibody.
Description: as §2
Experiment [13] has as its target human CLDN18.2-mRFP L69I (human). As to the kind of experiment: FACS, transfected HEK293, 10 µg/ml antibody.
Description: as §2
Experiment [14] deals with T1, human CLDN18.2. As to the kind of experiment: FACS, HEK293-CLDN18.2 cells. This is another data set of the same source.
Description: as §1
Experiment [15] deals with T2, human CLDN18.1. Description: FACS, hybridoma supernatant, HEK293-CLDN18.1 cells.
Description: Log-phase CLDN18.1 expressing HEK293-CLDN18.1 cells were resuspended in PBS at a density of 10\hat{ }5/100 μl per well. After 3× cell wash by using FACS washing buffer (PBS+2% FBS), 100 μl/well hybridoma supernatant was added into each well for incubation at 4° C. for 30 min. Again, cells were washed 3 times by using FACS washing buffer and then incubated with 100 μl/well goat anti-mIgG-FITC (1:400 dilution) at 4° C. for another 30 min. After a final 3× wash using FACS washing buffer, cells were analyzed by flow Cytometry.
For experiment [16], the target named is T1, human CLDN18.2. Description: flow cytometry on NUGC4 cells, goat anti-mIgG-FITC.
Description: as §1
The target in experiment [17] is T1, human CLDN18.2. As to the kind of experiment: flow cytometry on HEK293-CLDN18.2 cells, goat anti-mIgG-FITC; unit taken from the concentration axis.
Description: as §1

Sequence of human CLDN18.2-mRFP L69I (human) (chain, as listed by the source L69I L69I limits assumed): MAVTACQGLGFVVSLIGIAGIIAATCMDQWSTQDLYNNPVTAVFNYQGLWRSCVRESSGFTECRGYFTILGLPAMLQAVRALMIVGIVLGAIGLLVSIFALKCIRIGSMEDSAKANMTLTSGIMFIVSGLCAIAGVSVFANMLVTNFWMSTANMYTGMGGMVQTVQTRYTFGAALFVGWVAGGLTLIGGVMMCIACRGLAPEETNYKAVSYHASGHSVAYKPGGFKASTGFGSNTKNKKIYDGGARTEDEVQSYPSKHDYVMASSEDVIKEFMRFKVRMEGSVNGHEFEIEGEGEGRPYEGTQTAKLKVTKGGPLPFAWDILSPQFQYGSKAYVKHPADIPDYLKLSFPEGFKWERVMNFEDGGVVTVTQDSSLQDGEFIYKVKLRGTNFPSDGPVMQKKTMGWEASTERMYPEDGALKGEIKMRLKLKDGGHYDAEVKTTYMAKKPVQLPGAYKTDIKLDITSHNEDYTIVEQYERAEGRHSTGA
T2 sequence (P56856 whole entry, canonical isoform): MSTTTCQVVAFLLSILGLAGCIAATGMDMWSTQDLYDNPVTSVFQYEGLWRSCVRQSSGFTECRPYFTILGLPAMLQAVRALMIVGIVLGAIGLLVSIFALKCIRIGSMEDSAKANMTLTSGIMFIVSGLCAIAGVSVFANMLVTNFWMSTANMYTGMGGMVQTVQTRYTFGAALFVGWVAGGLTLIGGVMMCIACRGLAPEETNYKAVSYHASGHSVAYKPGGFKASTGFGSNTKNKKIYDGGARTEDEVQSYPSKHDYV
Sequence of human CLDN18.2-mRFP A42S (human) (chain, as listed by the source A42S A42S limits assumed): as the sequence (chain, as listed by the source L69I L69I limits assumed) above, with A42S, I69L counted along it
Sequence of human CLDN18.2-mRFP N45Q (human) (chain, as listed by the source N45Q N45Q limits assumed): as the sequence (chain, as listed by the source L69I L69I limits assumed) above, with N45Q, I69L counted along it
Sequence of human CLDN18.2-mRFP G65P (human) (chain, as listed by the source G65P G65P limits assumed): as the sequence (chain, as listed by the source L69I L69I limits assumed) above, with G65P, I69L counted along it
Sequence of human CLDN18.2-mRFP Q47E (human) (chain, as listed by the source Q47E Q47E limits assumed): as the sequence (chain, as listed by the source L69I L69I limits assumed) above, with Q47E, I69L counted along it
Sequence of human CLDN18.2-mRFP E56Q (human) (chain, as listed by the source E56Q E56Q limits assumed): as the sequence (chain, as listed by the source L69I L69I limits assumed) above, with E56Q, I69L counted along it
Sequence of human CLDN18.2-mRFP Q29M (human) (chain, as listed by the source Q29M Q29M limits assumed): as the sequence (chain, as listed by the source L69I L69I limits assumed) above, with Q29M, I69L counted along it
Sequence of human CLDN18.2-mRFP N37D (human) (chain, as listed by the source N37D N37D limits assumed): as the sequence (chain, as listed by the source L69I L69I limits assumed) above, with N37D, I69L counted along it

B1: 18B10-HbLa (antibody, human IgG1, kappa, V domains shown)
VH: QVQLVQSGAEVKKPGASVKVSCKASGYSFTGYNMNWVRQAPGQGLEWMGNIDPYYGGTSYNQKFKGRVTLTIDKSTSTVYMELSSLRSEDTAVYYCARMYHGNAFDYWGQGTTVTVSS
VL: DIVMTQSPDSLAVSLGERATINCKSSQSLLNSGNLKNYLTWYQQKPGQPPKLLIYWASTRKSGVPDRFSGSGSGTDFTLTISSLQAEDVAVYYCQNDYSYPLTFGGGTKVEIKR
notes: humanized 18B10, human IgG1 / kappa
Molecule B1 had an EC50 in experiment [1] of 1.31 µg/mL.

B2: 18B10-HcLb (antibody, human IgG1, kappa, V domains shown)
VH: QVQLVQSGAEVKKPGASVKVSCKASGYSFTGYNMNWVKQAPGQGLEWIGNIDPYYGGTSYNQKFKGRVTLTIDKSTSTVYMELSSLRSEDTAVYYCARMYHGNAFDYWGQGTTVTVSS
VL: DIVMTQSPDSLAVSLGERATMNCKSSQSLLNSGNLKNYLTWYQQKPGQPPKLLIYWASTRKSGVPDRFTGSGSGTDFTLTISSLQAEDVAVYYCQNDYSYPLTFGGGTKVEIKR
notes: as for B1
B2 registered an EC50 in [1] of 1.22 µg/mL.

B3: 18B10-HbLb (antibody, human IgG1, kappa, V domains shown)
VH: QVQLVQSGAEVKKPGASVKVSCKASGYSFTGYNMNWVRQAPGQGLEWMGNIDPYYGGTSYNQKFKGRVTLTIDKSTSTVYMELSSLRSEDTAVYYCARMYHGNAFDYWGQGTTVTVSS
VL: DIVMTQSPDSLAVSLGERATMNCKSSQSLLNSGNLKNYLTWYQQKPGQPPKLLIYWASTRKSGVPDRFTGSGSGTDFTLTISSLQAEDVAVYYCQNDYSYPLTFGGGTKVEIKR
notes: as for B1
Turning to B3, the EC50 in experiment [1] worked out at 1.2 µg/mL.

B4: 18B10-HaLb (antibody, human IgG1, kappa, V domains shown)
VH: QVQLVQSGAEVKKPGASVKVSCKASGYTFTGYNMNWVRQAPGQGLEWMGNIDPYYGGTSYNQKFKGRVTMTIDKSTSTVYMELSSLRSEDTAVYYCARMYHGNAFDYWGQGTTVTVSS
VL: DIVMTQSPDSLAVSLGERATMNCKSSQSLLNSGNLKNYLTWYQQKPGQPPKLLIYWASTRKSGVPDRFTGSGSGTDFTLTISSLQAEDVAVYYCQNDYSYPLTFGGGTKVEIKR
notes: as for B1
Regarding B4, in [1], the EC50 came to 1.27 µg/mL.

B5: 18B10-HcLa (antibody, human IgG1, kappa, V domains shown)
VH: QVQLVQSGAEVKKPGASVKVSCKASGYSFTGYNMNWVKQAPGQGLEWIGNIDPYYGGTSYNQKFKGRVTLTIDKSTSTVYMELSSLRSEDTAVYYCARMYHGNAFDYWGQGTTVTVSS
VL: DIVMTQSPDSLAVSLGERATINCKSSQSLLNSGNLKNYLTWYQQKPGQPPKLLIYWASTRKSGVPDRFSGSGSGTDFTLTISSLQAEDVAVYYCQNDYSYPLTFGGGTKVEIKR
notes: as for B1
On to B5, for which, in experiment [1], the EC50 amounted to 1.39 µg/mL. The EC50 values of the last two molecules are within 1.5-fold of each other.

B6: 7C12-C (antibody, human IgG1, V domains shown)
VH: EFQLQQSGPELEKPGASVRISCKTSGYSFTGYNMNWVKQSNGESLEWIGNIDPYYGATRYNQKFKGKATLTVDKSSSTAYMQLKSLTSEDSAVYYCARSYYGNAFDYWGQGTTLTVSS
VL: DIVMTQSPSSLTVTAGEKVTMSCKSSQSLLNSGNQKNYLTWYQQKPGQPPKLLIYWASTRESGVPDRFTGSGSGTDFTLTISSVQAEDLAVYYCQNDYSFPFTFGSGTKLEIK
notes: also called chimeric 7C12
Consider B6, for which the values for the EC50 in experiment [2] and in [4] were 13 µg/mL and 0.63 µg/mL, respectively. Besides, the binding result in [3] is listed as “no binding”. The “binding percentage vs wild-type CLDN18.2” value in experiment [5] was 100%; in experiment [6], 83.5%; in experiment [7], 80.2%; in [8] it was 38.7%; in experiment [9], 52.1%; in experiment [10], 74.7%. Besides, the “binding percentage vs wild-type CLDN18.2” value in experiment [11] came to 0.48%; in [12] it was 79.4%; in experiment [13] it was 90.4%.

B7: 7C12 (antibody, V domains shown)
VH: EFQLQQSGPELEKPGASVRISCKTSGYSFTGYNMNWVKQSNGESLEWIGNIDPYYGATRYNQKFKGKATLTVDKSSSTAYMQLKSLTSEDSAVYYCARSYYGNAFDYWGQGTTLTVSS
VL: DIVMTQSPSSLTVTAGEKVTMSCKSSQSLLNSGNQKNYLTWYQQKPGQPPKLLIYWASTRESGVPDRFTGSGSGTDFTLTISSVQAEDLAVYYCQNDYSFPFTFGSGTKLEIK
notes: mouse hybridoma antibody; also called hybridoma antibody 7C12
B7: the EC50 was found to be 1.08 µg/mL in experiment [14] and 0.417 µg/mL in experiment [17]. Also, the binding result in [15] is “no binding”. The “EC50 (read off the curve)” value in experiment [16] is about 0.5 µg/mL.

B8: 59A9 (antibody, V domains shown)
VH: QITQKESGPGILQPSQTLSLTCSLSGFSLSTYFIGVGWIRQPSGKGLEWLAHIWWNDNKYYNTALKSRLTISKDTSNNQVFLKIASVDTADTATYYCARMGSGAWFTYWGQGTLVTVSA
VL: DIVMTQSPSSLTVTAGEKVTMSCKSSQSLLNSGNQKNYLTWYQQKPGQPPKLLIYWASTRESGVPDRFTGSGSGTDFTLTISSVQAEDLAVYYCQNDYYYPLTFGSGTKLEIK
notes: mouse hybridoma antibody; also called hybridoma antibody 59A9
For the molecule B8, in [14], a half-maximal response (EC50) required 0.51 µg/mL. Further, the binding result in [15] is given as “no binding”.

B9: 26G6-C (antibody, human IgG1, V domains shown)
VH: EFQLQQSGPELEKPGASVKISCKTSGYSFTGYNMNWVKQSNGQSLEWIGHIDPYYVTTTYNQKFRGKATLTVDKSSSTAYMQLKSLTSEDSAVYYCARSFYGNAFDYWGQGTTLTVSS
VL: DIVMTQSPSSLTVTAGEKVTMSCKSSQSLFNSGNQKNYLTWYQQKPGQPPKLLIYWASTRESGVPDRFTGSGSGTDFTLTISSVQAEDLAVYYCQNDYSFPFTFGSGTKLEIK
notes: also called chimeric 26G6
For B9, the EC50 in [2] came out at 67.1 µg/mL; in [4], 1.1 µg/mL. Besides, the binding result in experiment [3] was “no binding”. For the same molecule, the “binding percentage vs wild-type CLDN18.2” value in [5] was 100%; in experiment [6] it was 107%; in experiment [7] it was 118%; in experiment [8], 82.2%; in [9], 88.7%; in [10], 116%. Moreover, the “binding percentage vs wild-type CLDN18.2” value in experiment [11] came out at 0.34%; in experiment [12], 119%; in experiment [13], 79.7%.

B10: 18B10 (antibody, V domains shown)
VH: EFQLQQSGPELEKPGASVRISCKTSGYSFTGYNMNWVKQSNGESLEWIGNIDPYYGGTSYNQKFKGKATLTVDKSSSTAYMQLKSLTSEDSAVYYCARMYHGNAFDYWGQGTTLTVSS
VL: DIVMTQSPSSLTVTAGEKVTMSCKSSQSLLNSGNLKNYLTWYQQKPGQPPKLLIYWASTRKSGVPDRFTGSGSGTDFTLTLSSVQAEDLAVYYCQNDYSYPLTFGAGTKLELK
notes: mouse hybridoma antibody; also called hybridoma antibody 18B10
In experiment [14], B10 returned an EC50 of 0.81 µg/mL. Also, the binding result in experiment [15] is on record as “no binding”.

B11: 11F12-C (antibody, human IgG1, V domains shown)
VH: EFQLQQSGPELEKPGASVRISCKTSGYSFTGYNMNWVKQSNGESLEWIGYIDPYYGGTRYNQKFKGKATLTVDKSSSTAYMQLKSLTSEDSAVYYCARSYYGNAFDYWGQGTTLTVSS
VL: DIVMTQSPSSLTVTAGEKVTMSCKSSQSLLNSGNQKNYLTWYQQKPGQPPKLLIYWASTRESGVPDRFTGSGSGTDFTLTISSVQAEDLAVYYCQNDYSYPFTFGSGTKLEIK
notes: also called chimeric 11F12
Consider B11, for which the figures for the EC50 in experiment [2] and in [4] were 10 µg/mL and 0.61 µg/mL, respectively. In addition, in experiment [3], the binding result is recorded as “no binding”. Moreover, the “binding percentage vs wild-type CLDN18.2” value in experiment [5] is 100%; in experiment [6] it was 108%; in experiment [7], 102%; in [8] it was 56.9%; in [9], 57.4%; in [10] it was 86.1%. For the same molecule, the “binding percentage vs wild-type CLDN18.2” value was found to be 0.27% in experiment [11], 92.7% in [12] and 74.3% in experiment [13].

B12: 12E9-C (antibody, human IgG1, V domains shown)
VH: EFQLQQSGPELEKPGASVRISCKTSGYSFTGYNMNWVKQSNGESLEWIGNIDPYYGGTRYNQKFKGKATLTVDKSSSTAYMQLKSLTSEDSAVYYCARSYYGNAFDYWGQGTTLTVSS
VL: DIVMTQSPSSLTVTAGEKVTMSCKSSQNLLNNGNQKNYLTWYQQKPGQPPKLLIYWASTRESGVPDRFTGSGSGTDFILTISSVQAEDLAVYYCQNDYSFPFTFGAGTKLELK
notes: also called chimeric 12E9
For the molecule B12, the EC50 worked out at 9.37 µg/mL in experiment [2] and 0.65 µg/mL in experiment [4]. The binding result in [3] is given as “no binding”. Also, the “binding percentage vs wild-type CLDN18.2” value was found to be 100% in experiment [5]; 106% in experiment [6]; 103% in experiment [7]; 55.1% in experiment [8]; 50.8% in experiment [9]; 89.1% in experiment [10]. For the same molecule, the results for the “binding percentage vs wild-type CLDN18.2” value in [11], in experiment [12] and in [13] were 0.35%, 96.7% and 58.1%, respectively.
